{"source": "patent US20090074722A1", "about": "“Products and methods for treating PTP lar diseases” (MAX-PLANCK-GESELLSCHAFT ZUR, priority 1999, published 2009)", "target": "T1, tyrosine phosphorylated β-catenin (Homo sapiens, UniProt P35222)", "T1 construct": "expressed in transfected cells; host or cells: human 293 embryonic kidney cells, transient; CMV-promoter vector; immunoprecipitated with anti-β-catenin antibody", "T1 sequence (P35222 1-781)": "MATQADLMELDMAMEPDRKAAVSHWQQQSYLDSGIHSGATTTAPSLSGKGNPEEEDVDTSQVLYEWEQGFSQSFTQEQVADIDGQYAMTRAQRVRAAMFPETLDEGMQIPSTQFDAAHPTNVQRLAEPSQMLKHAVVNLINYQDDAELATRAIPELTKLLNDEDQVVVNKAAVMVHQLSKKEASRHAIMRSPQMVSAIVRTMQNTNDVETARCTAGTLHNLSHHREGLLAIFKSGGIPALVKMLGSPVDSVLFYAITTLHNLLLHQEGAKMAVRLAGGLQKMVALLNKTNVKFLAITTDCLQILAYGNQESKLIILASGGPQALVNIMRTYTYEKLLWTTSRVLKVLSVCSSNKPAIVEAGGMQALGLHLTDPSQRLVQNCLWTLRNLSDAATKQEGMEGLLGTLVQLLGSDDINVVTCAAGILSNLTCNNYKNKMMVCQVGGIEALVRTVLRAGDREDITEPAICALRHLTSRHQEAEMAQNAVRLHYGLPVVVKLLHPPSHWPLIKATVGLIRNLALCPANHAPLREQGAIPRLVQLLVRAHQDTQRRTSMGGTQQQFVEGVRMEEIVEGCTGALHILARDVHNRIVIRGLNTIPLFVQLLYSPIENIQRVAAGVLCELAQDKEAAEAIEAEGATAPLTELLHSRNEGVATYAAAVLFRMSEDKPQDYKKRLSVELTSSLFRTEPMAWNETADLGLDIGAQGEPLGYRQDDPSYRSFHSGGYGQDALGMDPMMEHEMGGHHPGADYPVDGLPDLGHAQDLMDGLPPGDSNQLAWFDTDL", "assay": "In vitro dephosphorylation assay", "assay_type": "biochemical", "conditions": "200 ng GST fusion protein, 25° C.; within the first five minutes; anti-phosphotyrosine Western blot", "method": "After 24 h of serum starvation, the cells were stimulated with pervanadate before lysis. β-catenin was subsequently immunoprecipitated with an anti-β-catenin antibody, and precipitates were incubated for the indicated time intervals with GST-PTP LAR cytoplasmic fusion protein (left), GST-PTP LAR PTP D1 C1522S-mutant (middle) or GST-PTP LAR PTP D2 C1813S-mutant (right). Reactions were terminated after the indicated periods of time, and proteins were separated by SDS-PAGE. Tyrosine phosphorylation levels of […] were analyzed by Western blotting with an anti-phosphotyrosine antibody (top). […] Arrows indicate the proteins of interest.\nIn Vitro Dephosphorylation Assay—β-catenin was transiently overexpressed in human 293 embryonic kidney cells. Cells were serum-starved, treated with pervanadate ([…]/0.1 mM Na-orthovanadate) for 10 minutes and lysed. Immunoprecipitations were performed as described above except that HNTG without pyrophosphate, ammonium-molybdate, and Na-orthovanadate was used. PTP activity towards tyrosine phosphorylated β-catenin was assayed in 200 μL reactions at 25° C. containing 25 mM HEPES, pH 7.5, 5 mM EDTA, 10 mM DTT, and 1 mg/mL BSA with 200 ng of GST-hPTP LAR cytoplasmic, GST-hPTP LAR D1 C1522S, or GST-hPTP LAR D2 C1813S added. Reactions were stopped by washing with HNTG and subsequently separated by SDS-PAGE. The tyrosine phosphorylation status was analyzed by Western blotting using anti-phosphotyrosine antibody.\nThe association of β-catenin and plakoglobin with PTP LAR prompted the investigation of whether these proteins could represent actual substrates for PTP LAR. […] After different time intervals, the reactions were terminated and analyzed with an anti-phosphotyrosine specific antibody.", "data": [{"molecule": "GST-PTP LAR cytoplasmic: GST fusion protein comprising the entire cytoplasmic domain (amino acids 1259-1881) of human PTP LAR (protein) PEMLWVTGPVLAVILIILIVIAILLFKRKRTHSPSSKDEQSIGLKDSLLAHSSDPVEMRRLNYQTPGMRDHPPIPITDLADNIERLKANDGLKFSQEYESIDPGQQFTWENSNLEVNKPKNRYANVIAYDHSRVILTSIDGVPGSDYINANYIDGYRKQNAYIATQGPLPETMGDFWRMVWEQRTATVVMMTRLEEKSRVKCDQYWPARGTETCGLIQVTLLDTVELATYTVRTFALHKSGSSEKRELRQFQFMAWPDHGVPEYPTPILAFLRRVKACNPLDAGPMVVHCSAGVGRTGCFIVIDAMLERMKHEKTVDIYGHVTCMRSQRNYMVQTEDQYVFIHEALLEAATCGHTEVPARNLYAHIQKLGQVPPGESVTAMELEFKLLASSKAHTSRFISANLPCNKFKNRLVNIMPYELTRVCLQPIRGVEGSDYINASFLDGYRQQKAYIATQGPLAESTEDFWRMLWEHNSTIIVMLTKLREMGREKCHQYWPAERSARYQYFVVDPMAEYNMPQYILREFKVTDARDGQSRTIRQFQFTDWPEQGVPKTGEGFIDFIGQVHKTKEQFGQDGPITVHCSAGVGRTGVFITLSIVLERMRYEGVVDMFQTVKTLRTQRPAM", "values": [{"measurement": "tyrosine phosphorylation signal of β-catenin", "result": "significant reduction in the tyrosine phosphorylation signal"}]}]}
